# Data: the nanobody polyreactivity screen of Harvey et al. (2022)
# Assay: yeast display, Sf9 membrane polyspecificity reagent, FACS + sequencing; frameworks hold sequencing errors
# Outline: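 Polyreactivity labels are assigned by the sorting gate from which each nanobody was recovered. The gates were low and high (top ~1%), set on anti-HA fluorescence for expression and streptavidin fluorescence for reagent binding. Before sorting, galactose-induced (36–48 hours) yeast display cells were stained for 1 hour at 4 °C with 10% biotinylated, detergent-solubilized Sf9 membrane reagent.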
row,Sequence,polyreactivity (PSR sort gate)
1,QVQLVESGGGLVQAGGSLRLSCAASGRIFGDNVMGWYRQPPGKERELVAAIRKSGGNTYYADSVKGRFTISRDNAKNTVYLHMNSLKPEDTAVYYCAARYPYLYGFVEYDYWGQGTQVTLSS,low polyreactivity
2,QVQLVESGGGLVQAGGSLRLSCAASGRIFGDYAMGWYRQAPGKERELVAGINFSGGSTYYADSVKGRFTISRDNAKNTVYLQMNSLKPEDTAVYYCNVDSSTIWYLVPGDYWGQGTQVTVSS,low polyreactivity
3,QVQLVESGGGLVQAGGSLRLSCAASGRIFGDYGMGWYRQAPGKERELVAAISSGGSTNYADSVKGRFTISRDNAKNTVYLQMNSLKPEDTAVYYCAKATYPHEYDYWGQGTQVTVSS,low polyreactivity
4,QVQLVESGGGLVQAGGSLRLSCAASGRIFGFNMGWYRQAPGKERELVAAINSGGGTYYADSVKGLFTISRDNAKNTVYLQMNSLKPEYTAVYYCNARFRFRLGQYRYDYWGQGTQVTVSS,high polyreactivity
5,QVQLVESGGGLVQAGGSLRLSCAASGRIFGGNADMGWDRQAPGKERELVAVIDWSGGSTYYADSVKGRFTISRDNAKNTVYFQMHSLKPEDTAVYYCNADAPRSSGDYGQGDYWGQGTQVTVSS,high polyreactivity
6,QVQLVESGGGLVQAGGSLRLSCAASGRIFGGNAMGWYRPAPGKERELVAAITTRGGSTYADSVKGRFTISRDNAKNTVYLQMNSLKPEDTAVYYCAVERSYHGGPRYLVRTYGYWGQGTQVTVSS,low polyreactivity
7,QVQLVESGGGLVQAGGSLRLSCAASGRIFGGNVRGWYRQAPGKERELVAGISFSGGSTYYADSVKGRFTISRDNAKNTVYLQMNSLKPEDTAHYYCAASTYQPGALPFDYWGQGTQVTVSS,low polyreactivity
8,QVQLVESGGGLVQAGGSLRLSCAASGRIFGGYAMGWYRQAPGKERELVAAIRDSGRTYYADSVKGRFTISRDNAKNTVYLQMNSLKPEDTAVYYCAADAHSSYSPFRWYDYWGQGTQVTVSS,low polyreactivity
9,QVQLVESGGGLVQAGGSLRLSCAASGRIFGGYAMGWYRQAPGKERELVAAISRSGGSTYYADSVKGRFTISRDNAKNTVYLQMNSLKPEDTAVYYCNVASKRALSRYKGYYWGQGTQVTVSS,high polyreactivity
10,QVQLVESGGGLVQAGGSLRLSCAASGRIFGGYAMGWYRQAPGKERELVAGIRSGGSTYYADSVKGRFTISRDIAKNTVYLQINSLKPEDTAVYYCNARLYFWNRYTYSQNNYWGQGTQVTVSS,high polyreactivity
11,QVQLVESGGGLVQAGGSLRLSCAASGRIFGGYGRGWYRQAPGKERELVAAITSGDGSTYAESVKGRFTISRDNAKNTVYLQMNSLKPEDTAVYYCADESFGYSIDITDHEYWGQGTQVTVSS,high polyreactivity
12,QVQLVESGGGLVQAGGSLRLSCAASGRIFGGYVMGWYRQAPGKEREFVAAISGRGTSTSYADSVKGRFTISRDNAKNTVYLQMNSLKPEDTAVYYCAARRDGWTFWKYDYWGQGTQVTVSS,high polyreactivity
13,QVQLVESGGGLVQAGGSLRLSCAASGRIFGHYAMGWYRQAPGKERELVAAITIGGSTYYADSVKGRFTISRDNAKNTVYLQMNSLKPEDTAVYYCAKVGSNYRGRLGYWGQGTQVNVSS,low polyreactivity
14,QVQLVESGGGLVQAGGSLRLSCAASGRIFGHYAMGWYRQAPGKERELVAAITRSGDRTYYADSVKGRFTISRDNAKNTVYLQMNSLKPEDTEVYYCAADVSAVQGYYYWGQGTQVTVSS,low polyreactivity
15,QVQLVESGGGLVQAGGSLRLSCAASGRIFGHYARGWYRQAPGKERELVAAITSGGRTYYADSVKGRFTISRDNAKNTVYLQMNSLKPEDTAVYYFNVRVFVGLQPFGYWGQGTQVTVSS,high polyreactivity
16,QVQLVESGGGLVQAGGSLRLSCAASGRIFGHYVMGWYRQAPGTERELVAAISYSGGSTYYAHSVKGRFTISRDNAKNTVYLQMNSLKPEDTAVYYCAAYVYRYHRVAYEYWGQGTQVTVSS,high polyreactivity
